According to patent publication US20160122387A1, “Angiotensin Peptide and Pharmaceutical Compositions for Disease Treatment” (UNIVERSIDADE FEDERAL DE MINAS GERAIS - UFMG, priority 2012, published 2016):
Square brackets hold non-standard residues; d marks the D form. Ends that are not written are not given here.

How the values were obtained:
Mas receptor [1] = target: T1, Mas receptor (Rattus norvegicus, UniProt P12526); experiment: Vasorelaxation in SHR mesenteric rings in the presence of Mas receptor antagonist A-779
T1 construct: from tissue; host or cells: SHR rat thoracic aorta rings and mesenteric artery rings
T1 sequence (P12526 1-324): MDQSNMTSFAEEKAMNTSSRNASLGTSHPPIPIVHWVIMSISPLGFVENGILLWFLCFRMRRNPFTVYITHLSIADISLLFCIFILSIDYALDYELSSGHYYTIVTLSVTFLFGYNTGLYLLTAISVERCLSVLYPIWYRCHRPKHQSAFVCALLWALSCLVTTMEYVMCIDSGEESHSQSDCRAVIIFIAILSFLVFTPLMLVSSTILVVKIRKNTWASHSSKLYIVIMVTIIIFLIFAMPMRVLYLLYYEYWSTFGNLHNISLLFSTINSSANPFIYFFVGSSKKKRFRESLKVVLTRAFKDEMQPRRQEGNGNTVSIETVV
Description: Rings (2.0 mm) of mesenteric artery (2nd and/or 3rd branches) in spontaneously hypertensive rats (SHR), free from adipose and connective tissue, were maintained in a gasified solution (95% 02 and 5% CO2) of Krebs-Hanseleit, at 37° C. After a 15 minute stabilization period, the artery was stretched, gradually, to a resting tension considered optimal with respect to its inner diameter. For this, in each arterial segment, the voltage/diameter was calculated by internal circumference which corresponds to a transmural pressure of 100 mmHg for a relaxed vessel in situ (IC100) using software specific for standardization resistance arteries. For the experiments, the arteries were maintained with an internal circumference, IC1, calculated using the formula IC1=0.90×IC100, in which the development of strength is maximum, as previously described by Mulvany and Halpern (1977). The effective luminal diameter was determined according to the I1=IC1/π equation. […]
The presence of functional endothelium was assessed by the ability of acetylcholine [ACh] […] The mechanical activity was recorded isometrically using a myograph, which was connected to a system for data acquisition and to a computer.
The SHR vessels were pre-contracted with sub-maximal concentrations of phenylephrine (0.1 μmol/L). […] The result was expressed as a percentage of decrease in peak concentration induced by phenylephrine. […]

Mas receptor [2] = target: T1, Mas receptor; experiment: Vasorelaxation in SHR aortic rings in the presence of Mas receptor antagonists A-779 and D-Pro
Description: Three- to four-mm rings of the descending thoracic aorta in spontaneously hypertensive rats (SHR), free from adipose and connective tissue, were maintained in a gasified solution (95% 02 and 5% CO2) of Krebs-Henseleit, at 37° C. under a tension of 1.0 g for 1 hour for stabilization. The presence of functional endothelium was assessed by the ability of acetylcholine [ACh] (10 μmol/L) to induce more than 70% relaxation of vessels pre-contracted with phenylephrine (0.1 μmol/L). The mechanical activity, recorded isometrically by a force transducer, was fed into a recorder-amplifier and a computer equipped with an analog-digital converter board, using CVMS data acquisition/recording software.
The SHR vessels were pre-contracted to the same voltage level (approximately 1.0 g tension) at the submaximal concentration of phenylephrine (0.1 μmol/L). Mas receptor antagonists, A-779 and D-Pro, were added to […] immediately before adding the arg0-Ang-(1-7) in increasing cumulative concentrations. Results are presented as mean±SEM. One-way analysis of variance (ANOVA) with the Newman-Keuls post-test for multiple comparisons was used to compare the concentration response curves obtained in the aortic rings. The result was expressed as the percentage of decrease in peak concentration induced by phenylephrine. All statistical analyses were considered significant when p<0.05.

rat receptor Mas (rat) = rat receptor Mas (rat) (UniProt P12526); experiment: cell-based or functional assay

Row | Substance | antagonist effect on the vasorelaxation produced by arg0-Ang-(1-7) (Mas receptor [1]) | antagonist effect on the vasorelaxation produced by arg0-Ang-(1-7) (Mas receptor [2]) | Emax of vasorelaxation by arg0-Ang-(1-7) in SHR mesenteric artery rings in the presence of A-779 (rat receptor Mas (rat)) [%] | Emax of vasorelaxation by arg0-Ang-(1-7) in SHR rat aortic rings in the presence of A-779 (rat receptor Mas (rat)) [%] | Emax of vasorelaxation by arg0-Ang-(1-7) in SHR rat aortic rings in the presence of D-Pro (rat receptor Mas (rat)) [%]
1 | Asp-Arg-Val-Tyr-Ile-His-D-Ala (DRVYIH[dA]) [A-779] | blocked the vasorelaxant effect of the peptide | blocked the vasorelaxant effect of the peptide |  |  | 
2 | arg0-angiotensin-(1-7) (peptide) |  |  | 14.1 | 14 | 11
